The results in this text go back to the DeepSol protein solubility set.

The data set can be described thus: soluble on expression in E. coli; label from the status in PepcDB or PDB records.
In the case of “MGSDKIHHHHHHMAITIQNHELQVTLKALGATMTSITDSQGVEYLWQGDATYWGGQAPILFPICGSVRNDCVIYRPAQAPHFTGIIPRHGFVRHKTFDYDYISDSSVRFTIKSSKEMLINYPYRFSLEITYTLRNKSIAITYIVKNLESEKNMPYAIGAHPGFNCPLFEKEVFSDYYLEFEQFETCTIPESFPDTGLLDLQARHPFLENQKQLSLNHALFEKDAITLDQLRSKTVYLKSRNHAKGIQLDFDDFENLILWTSNNGGPFLALEPWSSLSTSIEESDILEDKQNIVRLNPKQSKQHSIRITIL”, the “soluble on expression in E. coli” value is on record as “not soluble”.

As to “MLPLPLIANGKGFIRALENDGALAVYAPLEGGYEGRYQRRLRANGYASISLSARGLGDVEAYLMQVHGVRPAHLGKKNIAQEGAVGPIYFAQPIAGYQLENLPAQSKGLVLWILEGYILSQTEIQDLISLTKRVPKLKVVLEMGGDRVFRWQPLLDCLQAALEHHHHHH”, the “soluble on expression in E. coli” value is “soluble”.

For “MAKYHDIASPAYILEEDLLRRNLSLIASVADRTGVEIILAFKAYALWRTFPIIREYVPHSTASSVWEARLAFEEMGAPAHTFSPAYTPEEFPEILRYSSHVTFNSLSQYYLLSPMVKNVGVSLGLRINPEYSAVETALYNPCAPGSRFGVSASELGDTLPEGIEGLHFHTLCESTGYELEKTLKIIEDRFASVLEQA”, the “soluble on expression in E. coli” value is “not soluble”.

For “MELLPQGQRNNTQVTFEDQQKINEFSKLIMRKDAIAQELSLQREEKEYLDDVSLEIELIDEDEPVQYKVGDLFIFMKQSKVTAQLEKDAERLDNKIETLEDKQRDIDSRLDALKAILYAKFGDNINLER”, the “soluble on expression in E. coli” value is reported as “not soluble”.

With “MGSDKIHHHHHHMESAKDITGRIFNIQKYSIYDGDGVRTLIFMKGCNIRCPWCANPEGIRRAYQILFSPDKCLHCGKCAEACPRGIHTLIADEYGSRFHHIDRTVQCTGCRKCEAACPSNALDIVGKDMTVAELMAVIMQDYSFYQSSGGGVTLSGGEVSLQTDFAVALLQACKQKMINTAVETQGTTSISHYDQLAAVTDMFLFDIKHIDTNQHKALFGIGNENIRRNLEHLVELGANIVIRMPLVRGYNDSYDAIMGAIHYVQKLAKRGNVRRIDILPYHQLGRKKYERLGMIYPIKADPSYNEEELNRLDAFFDEFDFDIRLVRH”, the “soluble on expression in E. coli” value is “not soluble”.

Consider “MDTIWDADLQSAALKAEHHRLKTERLSLGYEGKSVCDALDLAIPHGKFSVIVGPNGCGKSTLLKSLCRLLKPLAGQVLLDGQNIHQLPTKVVAKQLGLLPQSALTPEGIKVVDLVSRGRYPHQGLFRQWSRVDERAVEEAMRATHVHELAQHSVDQLSGGQRQRVWVAMALAQQTPYLLLDEPTTYLDIAHQIELLDLFWRLNRQQGHTLVAVLHDLNQACRYADHLIVLQEGKIVAQGDPHSLVTPALVKQVFGIDCVVMPDPISCTPLIIPYSLKRG”, for which the “soluble on expression in E. coli” value was “not soluble”.

As to “MAIESGYILTTPCKNEEKSLPELAESIINQTITPKLWLIINDNSTDNSAKILRDIETKYNWIRVVTSEGQKRDLSFHYAEVVRYGLSLSLEISSAEKIPVEYIGLIDADMILEKNFFEKMIDRFEQDPNLGVASGSTAYFEAENLVTEKGRDNLPIGGLRVWRRECLIETGGFPLSYSADSVSNVLALLHGWETKKFEDIIGIQTRRTGSAEGLWKGYITKGESDYYRDYHPVYVLSKFIKYSFTHPFYIGIAYMEGYINGIVKIKKKICIPEVRRYYRKKHLEIGRYYAGKFKFKLLEHHHHHH”, the “soluble on expression in E. coli” value was “not soluble”.

For “SRYAIYWTPEDGPLARFGRSWLGWDPVTAEPAAHPAIEDLPRDVALITQAPRKYGLHATLKPPFRLADGADVTDLHAAVVALCPYLAPVTLPGLKLDRIGGFLALVPAGNEEPLADLAAEVMRALDGFRAPLTEAELARRRPERLTPRQRGHLADWGYPYVLDDYRFHVTLTGELPEAELAEVVTVLEPLLEPILAEPVRIASLCLFAEASDGRFRMLERLPIT”, the “soluble on expression in E. coli” value is “not soluble”.

Take “MSQAAFVNPSILTWSRERAGLSAAQVARKLPVKPERVEEWESGEARPTFLQAQKWASVAHVPFGFLFLLQPPVEQLPLPDLRTVGNSAPLRPSLELLDTVKDAIRKQDWYLEYLHVQERQPLPFVGRFDSRTPVKTVVSDIRQTLGVDPEKSRLDYDKYSRALIDAAEVAGVLVMRSGIALGNTHRKLEVSEFRGFAISNPLAPVVFINSSDAPTARLFTLMHELAHIWIGSSGVSDAGTANGREEERFCNAVAGEFLVPEALFRTVWSASIEWESNLATLATRFHVSKLVIGRRAMDLGYVTQEQYGAYYQKILKAFRDEKGGAEDYYRNATAKNSTRLSKAVLTETLSGRMLLREAGNLLGVQPAKLRTLAAEHL”: the “soluble on expression in E. coli” value is reported as “not soluble”.

“KSIRLAKEKESQADYISTYVEWQYIDKNITQCFDKMTNMKLEVAWKAKKKDTVVQIHNQDFTVDLSTNTATAPQGQTFTVQRLVKA”: the “soluble on expression in E. coli” value is “soluble”.

“APIKVGINGFGRIGRMVFQAICDQGLIGTEIDVVAVVDMSTNAEYFAYQMKHDTVHGRPKYTVEAVKSSPSVETADVLVVNGHRIKCVKAQRNPADLPWGKLGVDYVIESTGLFTDKLKAEGHIKGGAKKVVISAPASGGAKTIVMGVNQHEYSPASHHVVSNASCTTNCLAPIVHVLTKENFGIETGLMTTIHSYTATQKTVDGVSLKDWRGGRAAAVNIIPSTTGAAKAVGMVIPSTKGKLTGMSFRVPTPDVSVVDLTFRATRDTSIQEIDKAIKKAAQTYMKGILGFTDEELVSADFINDNRSSVYDSKATLQNNLPGEKRFFKVVSWYDNEWAYSHRVVDLVRYMAAKDAASSKM”: the “soluble on expression in E. coli” value is “soluble”.

“MGSDKIHHHHHHMDEQQQLANAYHSNKLSHAYLFEGDDAQTMKRVAIHFTKLILCNNSNQCELKVDTFNHPDFSYVSSDENTIKKEQIEQLVHHMNQLPIEGQYKVYIIEDFEKLTVQGENSILKFLEEPPDNTIAILLSTKPEQILDTIHSRCQHVYFKPIDKRQFIERLVEMSIARPVAEMLSTYTTQIEAASSLNEEFDLVTLRKSIIRWCQLILSNKAMALIGVIELLKQAKNRKLQLLTLSAVNGFFEDIMHAKIEMDNYYTFSDLTEEIENYANQLTFNQLILMYDQITEAHKKLNQNVNPTLVFEQIVIKGVI”: the “soluble on expression in E. coli” value is recorded as “not soluble”.

Regarding “MRVELFNPSIKKIIVKLSQLKGLWIVQLNLSKNRLSEKKFTDLAVLLSMLKAFGVTYLNLHFNNLGQKTGTELVALFKILKDSGISRLSLSANELYQKTGTELATLLTALSDSDIIQLDLSCNWLGQRQDAELIELFKAWSSTPIIDLDLTNNDLGKKSGIVLSEMFRALKVSSISHLGLRNNDLYQRTGAEFSSLLSAIKDSPVTHLDLSDNGLHLMVAAAFETLFDALKDSSVTHLNLCRNGIGHLDMFQMTAMFCSLQCTGVTHLDLGENSLELMTAEELAAIFQVFKDSRLIHLGLNDSYLNNRTTEDLHLIFNALPANIATIKLSLEELTEMSSEQRQTIQRRFPRAEQVILVNNMEGRELNPSLSLGDANVYRRLGFVGVSPLSLAGLASFFVASNNLRFAREVQKLLPDEVTERIVKNILG”, the “soluble on expression in E. coli” value is listed as “not soluble”.

With “MDLVKDVKRELSFSELKGKRVSIDGYNALYQFLAAIRQPDGTPLMDSQGRVTSHLSGLFYRTINILEEGVIPIYVFDGKPPEQKSEELERRRKAKEEAERKLERAKSEGKIEELRKYSQAILRLSNIMVEESKKLLRAMGIPIVQAPSEGEAEAAYLNKLGLSWAAASQDYDAILFGAKRLVRNLTITGKRKLPNKDVYVEIKPELIETEILLKKLGITREQLIDIGILIGTDYNPDGIRGIGPERALKIIKKYGKIEKAMEYGEISKKDINFNIDEIRGLFLNPQVVKPEEALDLNEPNGEDIINILVYEHNFSEERVKNGIERLTKAIKEAKGASRQTGLDRWF”, the “soluble on expression in E. coli” value is “soluble”.

Turning to “MFENITAAPADPILGLADLFRADERPGKINLGIGVYKDETGKTPVLTSVKKAEQYLLENETTKNYLGIDGIPEFGRCTQELLFGKGSALINDKRARTAQTPGGTGALRVAADFLAKNTSVKRVWVSNPSWPNHKSVFNSAGLEVREYAYYDAENHTLDFDALINSLNEAQAGDVVLFHGCCHAPTGIDPTLEQWQTLAQLSVEKGWLPLFDFAYQGFARGLEEDAEGLRAFAAMHKELIVASSYSKNFGLYNERVGACTLVAADSETVDRAFSQMKAAILANYSNPPAHGASVVATILSNDALRAIWEQELTDMRQRIQRMRQLFVNTLQEKGANRDFSFIIKQNGMFSFSGLTKEQVLRLREEFGVYAVASGLVNVAGMTPDNMAPLCEAIVAVL”, the “soluble on expression in E. coli” value was “soluble”.

In the case of “MGSDKIHHHHHHMSLSSPASRPPLQIRATPVWSPQRDENAEHIVLSPDEQYELGRLGEIIEYRTAKLEILSQSEPADFLYLLIEGVVQACHSLKDGQRQIVAFYWPGDIFGLAEKGLYVNSSEAVTPCSVYRFPFRKLEKFLLEHPRIQQGFFVKAVHEIRTAQRHTITIGQLELPQRLAAFLVDCSEHDRYFDSESSTLSLPMLRYDIADYLGTSVEAVSRTFALLEKNGLVQRKGPRKLEISMKKLIDFSGIA”, the “soluble on expression in E. coli” value is “not soluble”.

Regarding “MSLTSPSELRSGKTHRDENFPVASWIIHPRHRDLILAFYNFVRTADDIADHEMLDGDTKLEYLDLLEAELLGRGETQPEAVHLRRALAERGMPPRHALDLLTAFRMDVTKLRYEDWDEVIHYCRYSAMPVGRFMLDVHGESTTTWQASDALCAGLQINNHLQDCGKDYRTLNRVYLPRDVLDAAGAKVEDLGLQKSSPALLKCLQGLAVRTASLLGDGRPLAAEIKDYRLGLEVSVIQAYADRIVRMLQTRDPLSERVHLKPIEFVIASFGAMSSEIVRRSEGHHHHHH”, the “soluble on expression in E. coli” value is “soluble”.

Consider “MIKDYLIETMNQDEVNLAITWAAQEGWNPGIHDATCFYQTDPHGFFAGKLNGKTIAIGSAVIYDDFFAFCGFYIVDKSYRDQGYGLELTKARLAYIGNRNAGIDGVINMLDKYARIGYQLAHNNARYCLNKTIKPISSEPHIVPLNQIDFSQLSSYDRLHFPAPRPQFLKCWINQPQSLALAYLIDGQIKGYGVIRTCHKGFKIGPLFAGTPEIAHQLFSNLVPYAKGQLIFLDIPENNPLAIELVSQYQMKKVFATARMYLKGEPPVKKESIYGITTFELG”, for which the “soluble on expression in E. coli” value was “not soluble”.

On to “MDKKELVEKIALNTLVFETLGQPEKEREFTIQDLRRWGFDLILGKKNGVRTFFASQAGREVGDKWEEGGATYEIEEILLELPENKKLFAHIETSEGVAYIVAELREGKENLEILRTPAPTLLMAFFKKHRLHELANNLKSVGVITEFYKQRGRESLPLPYKKLPLVARDFLERAKKVEKMAGFGRVALAYFGKTREKDNRFRVSWLLPTIALFDIDISEKANTALEEFK”, for which the “soluble on expression in E. coli” value was “soluble”.

On to “MQYHYQWLTPFDAKRTTVVCLHGFTGTLATFAAVFPSQTPYNVLGIDLPGHGATASLVAPERYTMKQVCHDIAELTESLNLPCFCLLGYSMGARTALGFALHYPQKVQHLLLESGSPGLATAAERQARICQDHRLAERLLEEPLVDFIDFWQELPLFQTQKALSVAQQMAIRQERLSQSAFGLVSSLWYMGTGAQESYWERLAELQPIPTDLLVGGEDQKFIGIAKKMQARQPLLRLTIFPEAGHCIHLEQPTIFYEKVTALLEGAI”, for which the “soluble on expression in E. coli” value is recorded as “not soluble”.

On to “QGVRTFVDPFTFEDPNQAVREFAKEIDASCIKIEKVIGVGEFGEVCSGRLKVPGKREICVAIKTLKAGYTDKQRRDFLSEASIMGQFDHPNIIHLEGVVTKCKPVMIITEYMENGSLDAFLRKNDGRFTVIQLVGMLRGIGSGMKYLSDMSAVHRDLAARNILVNSNLVCKVSDFGMSRVLEDDPEAAYTTRGGKIPIRWTAPEAIAYRKFTSASDVWSYGIVMWEVMSYGERPYWDMSNQDVIKAIEEGYRLPPPMDCPIALHQLMLDCWQKERSDRPKFGQIVNMLDKLIRNPNSLKRTGSESS”, for which the “soluble on expression in E. coli” value is “soluble”.
